# PMC2527209
# Biological target: non-translating mammalian (canine) ribosome (canine)
# Experiment: co-sedimentation
substance,measurement,value
Sec61 complex (from UniProt P38377 1-476; P60467 1-96; P60058 1-68),stoichiometry N,0.8
